The data set deals with the molecule itself. Kind of data set: native gel or EMSA; Native-PAGE of total protein from NRCMs, blotted with anti-NOVA1. (In general: In EMSA bound probe runs differently from free probe, usually more slowly.)

Here are results for one protein from publication PMC8989981, “Negative feedback of SNRK to circ-SNRK regulates cardiac function post-myocardial infarction” (Cell Death and Differentiation, 2021).

B1: NOVA1 (NOVA alternative splicing regulator 1) (natural protein, rat (endogenous in NRCMs), UniProt Q80WA4 1-474, looked up)
chain: MAAAPIQQNGTHTGVPIDLDPPDSRKRPLEAPPEAGSTKRTNTGEDGQYFLKVLIPSYAAGSIIGKGGQTIVQLQKETGATIKLSKSKDFYPGTTERVCLIQGTIEALNAVHGFIAEKIREMPQNVAKTEPVSILQPQTTVNPDRIKQVKIIVPNSTAGLIIGKGGATVKAIMEQSGAWVQLSQKPDGINLQERVVTVSGEPEQNRKAVELIIQKIQEDPQSGSCLNISYANVTGPVANSNPTGFPYANTAEVLPTAAAAAGLLGHANLAGVAAFPAVLSGFTGNDLVAITSALNTLASYGYNLNTLGLGLSQAAATGALAAAAASANPAAAAANLLATYASEASASGSTAGGTAGTFALGSLAAATAATNGYFGAASPLAASAILGTEKSTDGSKDVVEIAVPENLVGAILGKGGKTLVEYQELTGARIQISKKGEFVPGTRNRKVTITGTPAATQAAQYLITQRITYEQGVR
notes: NOVA1 (NOVA alternative splicing regulator 1), rat, as present in neonatal rat cardiomyocytes; also called protein NOVA1; source: endogenous, NRCMs (neonatal rat cardiomyocytes), in lysate / total protein
For B1, the stoichiometry N (in general, the number of molecules, sites or subunits per partner or assembly) amounted to 2.
